Experiments:
Capan-2 xenografts [1] = test system: Capan-2 xenografts
Excerpt: (§1) For in vivo experiments, at least 8-week-old female athymic NMRI-Foxn1^nu/Foxn1^nu mice (Janvier Labs, Saint-Berthevin, France) were used. Animal care followed institutional guidelines and all experiments were approved by local animal research authorities. For the generation of tumor xenografts, 5 x 10^6 cells of Capan-2 cells were inoculated subcutaneously into the left and right shoulder (1:1 phosphate-buffered saline [PBS]/Matrigel Basement Membrane Matrix High Concentration, Corning, Corning, USA). Tumors were allowed to grow for two to four weeks (tumor volume > 100 mm^3) after cell inoculation.
(§2) Radiolabeling of the DOTA-integrin αvβ6 knottin was carried out manually using [^177Lu]LuCl3 and a reagent kit from ITG Isotope Technologies Garching GmbH (Garching, Germany). A total of 40 µL (stock solution of peptide at 1 µg/µL in 10% DMSO in water) was added to 500 µL of ascorbate buffer solution pH 5.0, prepared from the kit (composition not disclosed by vendor) and the resulting mixture was then added to 35 µL of [^177Lu]LuCl3 (2 GBq in aqueous 0.04 M HCl) and the reaction mixture was heated at 80 °C for 35 minutes followed by cooling for 10 minutes at room temperature. The product was then diluted with 0.5 mL of saline and the pH was adjusted to 7 using a 1 M aqueous solution of NaHCO3 prior to injection in mice. A reverse-phase HPLC system (Knauer GmbH, Germany) with a column (Eurospher II, C18, 250 × 4 mm) was used to determine the radiochemical purity of the radiotracer. The HPLC system was equipped with an Azura P.6.1L pump coupled with ultraviolet (Azura UVD 2.1L) and radiometric (γ-Raytest-Isotopenmessgeraete GmbH, Germany) detectors. The gradient elution system used mobile phase A (100% acetonitrile) and mobile phase B (deionized H2O containing 0.1% trifluoroacetic acid) and a flow rate of 1.0 mL/min. Starting with 0% A and 100% B, the gradient was increased to 100% A over 25 min and finally returned to initial gradient conditions within 5 min.
SPECT and CT imaging were performed using the nanoSPECT/CTplus scanner (Mediso, Hungary/Bioscan, France). […]

Capan-2 xenografts [2] = assay: in vivo; conditions: for Kidney uptake / Blood activity: ~1 MBq i.v.
Excerpt: as §1, §2
(§3) Tumor-bearing mice (n=4-5 per time point) were injected with approximately 1 MBq (22 pmol) of ^177Lu-DOTA-integrin αvβ6 knottin to the tail vein via a catheter. Mice (n=4-5 per time point) were sacrificed and dissected one, two, three and eight days post injection. Tumor, blood, stomach, pancreas, small intestine, colon, liver, spleen, kidney, heart, lung, muscle and femur samples were weighed and uptake of radioactivity was measured by a gamma counter.

in vivo = conditions: female, NMRI-Foxn1^nu/Foxn1^nu (athymic nude), mouse, iv, 1 MBq, total radioactivity; for tissue uptake at 24 h: 24 h p.i.; for tissue uptake at 24 h / tissue uptake at 48 h / tissue uptake at 72 h / tissue uptake at 192 h: nude mice, Capan-2 xenografts, mean ± SD (4 ≤ n ≤ 5); for tissue uptake at 48 h: 48 h p.i.; for tissue uptake at 72 h: 72 h p.i.; for tissue uptake at 192 h: 192 h p.i.
Excerpt: as §1, §2, §3

[3] = 192 h p.i., nude mice, Capan-2 xenografts, mean ± SD (4 ≤ n ≤ 5)
[4] = colon, Colon uptake, ~1 MBq i.v.
[5] = liver, Liver uptake, ~1 MBq i.v.
[6] = small intestine, Small intestine uptake, ~1 MBq i.v.
[7] = spleen, Spleen uptake, ~1 MBq i.v.
[8] = tail, Tail activity, ~1 MBq i.v.
[9] = tumor, Tumor uptake, ~1 MBq (22 pmol) i.v.

CC[C@H](C)[C@@H]1NC(=O)[C@@H](NC(=O)CNC(=O)CN2CCN(CC(=O)O)CCN(CC(=O)O)CCN(CC(=O)O)CC2)CSSC[C@@H]2NC(=O)[C@H](C)NC(=O)CNC(=O)[C@@H]3CCCN3C(=O)[C@@H]3CSSC[C@@H](C(=O)NCC(=O)O)NC(=O)[C@H](Cc4ccc(O)cc4)NC(=O)CNC(=O)[C@H](CC(N)=O)NC(=O)CNC(=O)[C@H](CCCNC(=N)N)NC(=O)[C@H](CSSC[C@H](NC(=O)[C@H](CCCNC(=N)N)NC(=O)[C@H](Cc4ccccc4)NC(=O)[C@H](CC(C)C)NC(=O)[C@H](CC(C)C)NC(=O)[C@H]([C@@H](C)O)NC(=O)CNC(=O)[C@H](CC(C)C)NC(=O)[C@H](CC(=O)O)NC(=O)[C@H]([C@@H](C)O)NC(=O)[C@H](CCCNC(=N)N)NC(=O)CNC(=O)[C@H](CC(N)=O)NC(=O)[C@H](CC(C)C)NC1=O)C(=O)N[C@@H](CCCNC(=N)N)C(=O)N[C@@H](CCCNC(=N)N)C(=O)N[C@@H](CC(=O)O)C(=O)N[C@@H](CO)C(=O)N[C@@H](CC(=O)O)C(=O)N3)NC(=O)[C@H]([C@@H](C)CC)NC2=O [^177Lu-DOTA-integrin αvβ6 knottin, metal not drawn]
Tracer accumulation (SPECT MIP) (Capan-2 xenografts [1]; 22 h p.i., 62 MBq i.v.): accumulation of ^177Lu-DOTA-integrin αvβ6 knottin in both the tumors and the kidneys | Uptake by other organs (SPECT) (Capan-2 xenografts [1]; 22 h p.i., 62 MBq i.v.): low or moderate | Initial kidney accumulation (SPECT) (Capan-2 xenografts [1]; kidney versus tumor, up to 3 h p.i.): higher initial accumulation | Tumor uptake (Capan-2 xenografts [2]; 24 h p.i., ~1 MBq (22 pmol) i.v., nude mice, Capan-2 xenografts, mean ± SD (4 ≤ n ≤ 5)): 3.13 ± 0.63 %IA/g | Kidney uptake (Capan-2 xenografts [2]; 24 h p.i., nude mice, Capan-2 xenografts, mean ± SD (4 ≤ n ≤ 5)): 19.2 ± 2.5 %IA/g | Blood activity (Capan-2 xenografts [2]; 48 h p.i., nude mice, Capan-2 xenografts, mean ± SD (4 ≤ n ≤ 5)): 0.00 %IA/g | Blood activity (Capan-2 xenografts [2]; [3]): 0.00 %IA/g | Kidney uptake (Capan-2 xenografts [2]; [3]): 2.3 ± 0.40 %IA/g | Tumor uptake compared with ^64Cu conjugate (Capan-2 xenografts [2]; comparison with earlier study, cited there as [19]): tumor uptake was not found to be higher | Kidney wash-out versus tumor (ex vivo) (Capan-2 xenografts [2]; days 1, 2, 3 and 8 p.i., listed as 177Lu tracer): in the tumor the activity was cleared at a much lower rate than in the kidney | Activity in organs like stomach, colon and lung (Capan-2 xenografts [2]; later time points): low or moderate activity | tissue uptake at 24 h (in vivo; [4]): 1.37 %ID/g | tissue uptake at 48 h (in vivo; [4]): 0.56 %ID/g | tissue uptake at 72 h (in vivo; [4]): 0.43 %ID/g | tissue uptake at 192 h (in vivo; [4]): 0.04 %ID/g | tissue uptake at 24 h (in vivo; [5]): 0.24 %ID/g | tissue uptake at 48 h (in vivo; [5]): 0.18 %ID/g | tissue uptake at 72 h (in vivo; [5]): 0.2 %ID/g | tissue uptake at 192 h (in vivo; [5]): 0.08 %ID/g | tissue uptake at 24 h (in vivo; [6]): 0.76 %ID/g | tissue uptake at 48 h (in vivo; [6]): 0.35 %ID/g | tissue uptake at 72 h (in vivo; [6]): 0.27 %ID/g | tissue uptake at 192 h (in vivo; [6]): 0.02 %ID/g | tissue uptake at 24 h (in vivo; [7]): 0.06 %ID/g | tissue uptake at 48 h (in vivo; [7]): 0.07 %ID/g | tissue uptake at 72 h (in vivo; [7]): 0.18 %ID/g | tissue uptake at 72 h (in vivo; [8]): 0.16 %ID/g | tissue uptake at 192 h (in vivo; [8]): 0.08 %ID/g | tissue uptake at 48 h (in vivo; [9]): 2.45 %ID/g | tissue uptake at 72 h (in vivo; [9]): 3.46 %ID/g | tissue uptake at 192 h (in vivo; [9]): 1.16 %ID/g | Kp at 24 h (in vivo; tumor/blood): 498 | Kp at 48 h (in vivo; tumor/blood): 851 | Kp at 72 h (in vivo; tumor/blood): 697 | Kp at 192 h (in vivo; tumor/blood): 2120 | tissue to tissue ratio at 24 h (in vivo; tumor/kidney): 0.17 | tissue to tissue ratio at 48 h (in vivo; tumor/kidney): 0.19 | tissue to tissue ratio at 72 h (in vivo; tumor/kidney): 0.24 | tissue to tissue ratio at 192 h (in vivo; tumor/kidney): 0.51 | tissue to tissue ratio at 24 h (in vivo; tumor/liver): 13 | tissue to tissue ratio at 48 h (in vivo; tumor/liver): 13.6 | tissue to tissue ratio at 72 h (in vivo; tumor/liver): 18.4 | tissue to tissue ratio at 192 h (in vivo; tumor/liver): 14.6 | tissue to tissue ratio at 24 h (in vivo; tumor/muscle): 13.1 | tissue to tissue ratio at 48 h (in vivo; tumor/muscle): 23.1 | tissue to tissue ratio at 72 h (in vivo; tumor/muscle): 35.8

— publication PMC8200818, “SPECT/CT Imaging, Biodistribution and Radiation Dosimetry of a ^177Lu-DOTA-Integrin αvβ6 Cystine Knot Peptide in a Pancreatic Cancer Xenograft Model” (Frontiers in Oncology, 2021)
